Results reported in patent US6001823A, “Treatment or prophylaxis of diseases caused by pilus-forming bacteria” (priority 1995, dated 1999).

Key:
PapD [1] = target: T1, PapD (Escherichia coli, UniProt P15319); assay: ELISA: PapD binding to peptides coated on microtiter wells; set-up: made in house; species or system E. coli; details: peptide coated on microtiter wells, ELISA
T1 sequence (P15319 22-239): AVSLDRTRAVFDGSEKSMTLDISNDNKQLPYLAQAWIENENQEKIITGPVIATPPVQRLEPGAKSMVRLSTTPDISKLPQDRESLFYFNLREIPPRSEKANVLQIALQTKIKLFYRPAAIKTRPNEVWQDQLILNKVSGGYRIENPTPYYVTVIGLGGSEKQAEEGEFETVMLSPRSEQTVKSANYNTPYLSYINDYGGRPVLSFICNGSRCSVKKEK
Description: The residues in the peptides were numbered starting with the carboxyl terminal residue as 1, and ending with the amino terminal residue. Peptides were also synthesized which deviated in length (G1'-16'WT, G1'-11'WT, G1'-7'WT) or sequence (G2'-21'amide, G1'-19'SV, G1'-19'NH2) from the wild type PapG carboxyl terminal sequence. Using an enzyme-linked immunosorbent assay (ELISA), we tested the ability of PapD to bind to each peptide coated on wells of microtiter plates:
5 mg/ml stock solutions of peptides in water or 50% acetic acid were diluted to a concentration of 2.5 pmol/50 μl in PBS. 50 μl of the peptide solution was coated overnight onto microtiter wells (Nunc-Immuno Plate Maxisorp) at 4° C. The solutions in the plates were discarded, and the wells were blocked with 200 μl 3% bovine serum albumin (BSA, Sigma) in PBS (120 mM NaCl/2.7 mM KCl/10 mM phosphate buffer salts, pH 7.4) for 2 hours at 25° C. The plates were washed vigorously 3 times with PBS and incubated with 50 μl of the indicated amount of purified PapD (Lindberg et al, 1989). After 3 washes with PBS, the wells were incubated with a 1:500 dilution of anti-PapD rabbit antiserum (Lindberg et al, 1989) in 3% BSA/PBS for 45 min. at 25° C. After 3 washes with PBS, the wells were incubated with a 1:1000 dilution of goat anti-rabbit IgG coupled to alkaline phosphatase (Sigma) in 3% BSA/PBS for 45 min. at 25° C. Following 3 washes with PBS and 3 washes with developing buffer (10 mM diethanolamine pH 9.5, 0,5 mM MgCl2), 50 μl filtered p-nitrophenyl phosphate substrate (Sigma) in developing buffer (10 mg/ml) was added. The absorbance at 405 nm was read after 60 min of incubation in the dark at 25° C.

PapD [2] = target: T1, PapD; assay: Soluble inhibition ELISA: peptide inhibition of PapD binding to G1'-19'WT-coated wells; set-up: made in house; species or system E. coli; details: peptide in solution
Description: In addition, the ability of water-soluble peptides to inhibit PapD binding to G1'-19'WT-coated wells in a soluble inhibition ELISA were tested, since peptide conformations may have been affected by binding to the plastic microtiter plates:
Microtiter wells were coated overnight at 4° C. with 50 μl of 2,5 pmol/50 μl of the G1'-19'WT peptide. The wells were washed with PBS and blocked with 3% bovine serum albumin (BSA). A 25-fold molar excess of each test peptide was pre-incubated with 100 pmoles PapD for 30 min. and the PapD-peptide solution was then added to the coated wells and incubated at 25° C. for 45 min in the presence of 3% BSA/PBS. The subsequent primary antibody, secondary antibody and developing steps are described above. The ability of the peptides to inhibit binding of PapD to the G1'-19'WT peptide was calculated by dividing the amount of PapD binding in the presence of peptide with the amount of PapD binding in the presence of water. 0% inhibition includes values where binding was greater than that of PapD pre-incubated with H2 O.
The % inhibition represents the percentage of PapD binding in the presence of the peptide compared to in the presence of water and are the average of two experiments performed duplicate: […]

PapD [3] = target: T1, PapD; assay: ELISA: peptide inhibition of PapD binding to MBP-G1'-140' fusion protein; set-up: species or system E. coli; details: PapD preincubated with peptide at 1:25 ratio
Description: The ability of the peptides to inhibit the binding of PapD to the MBP-G1'-140' fusion protein was then investigated using the following ELISA test:
Stock solutions of MBP-G1'-140' proteins in PBS were diluted to 0.1 μM with PBS. The wells of microtiter plates were coated with 50 μl of the protein solutions overnight at 4° C. The wells were washed with PBS, and blocked with 200 μl of 3% bovine serum albumin (BSA) in PBS for 2 hours at 25° C. The plates were washed vigorously three times with PBS and incubated with 50 μl of 1-5 μM PapD proteins in 3% BSA-PBS for 45 minutes at 25° C. The PapD was preincubated with each of the peptides at a 1:25 ratio for 30 min before being added to the wells. After three washings with PBS, the wells were incubated with a 1:500 dilution of rabbit anti-PapD antiserum in 3% BSA-PBS for 45 minutes at 25° C. After three washings with PBS, the wells were incubated with a 1:1000 dilution of goat antiserum to rabbit IgG coupled to alkaline phosphatase in 3% BSA-PBS for 45 minutes at 25° C. After three washings with PBS and three washings with developing buffer (10 mM diethanolamine, 0.5 mM MgCl2), 50 μl filtered 1 mg/ml p-nitrophenyl phosphate in developing buffer was added, the reaction was incubated for 1 hour or longer if necessary in the dark at 25° C., and the absorbance at 405 nm was read.

NH2--KPGELSGSMTMVLSFP--COOH (H-KPGELSGSMTMVLSFP-OH) [G1'-16'WT]
binding of PapD to immobilized peptide (PapD [1]): binds
inhibition of PapD binding to immobilized G1'-19'WT by soluble peptide (PapD [2]): inhibited binding
inhibition of binding of PapD to MBP-G1'-140' fusion protein (PapD [3]): significantly more potent
